B1: HDV Ribozyme (parent)
chain: GGCCGGCAUGGUCCCAGCCUCCUCGCUGGCGCCGGCUGGGCAACAUUCCGAGGGGACCGUCCCCUCGGUAAUGGCGAAUGGGACCCA

In the RNAGym collection of RNA variant scans (doi:10.7554/elife.80360) one finds self-cleavage data, which are given here for 32 variants.

Variants of B1 are the subject of this data set. In words: self-cleavage, relative activity (ratio to wild type); higher = more cleavage; co-transcriptional.
As for GGCCGGCAUGGUCCCAGCCUCCUCGCUGGCGCCGGCUGGGCAACAUUCCGAGGGGAAAGUCCCCUCGGUAAUGGCGAAUGGGACCCA, the self-cleavage came to 1.07.

As for GGCCGGCAUGGUCCCAGCCUCCUCGCUGGCGCCGGCUGGGCAACAUUCCGAGGGGAACGUCCCCUCGGUGAUGGCGAAUGGGACCCA, the self-cleavage worked out at 0.852. Take GGCCGGCAUGGUCCCAGCCUCCUCGCUGGCGCCGGCUGGGCAACAUUCCGAGGGGAACGUCCCCUCGGUCAUGGCGAAUGGGACCCA: the self-cleavage came out at 0.773.

As for GGCCGGCAUGGUCCCAGCCUCCUCGCUGGCGCCGGCUGGGCAACAUUCCGAGGGGAACGUCCCCUCGGUAAUGGCGAAUGGGGCCCA, the self-cleavage was 0.688. Take GGCCGGCAUGGUCCCAGCCUCCUCGCUGGCGCCGGCUGGGCAACAUUCCGAGGGGUCCGUCCCCUCGGUAAUGGCGAAAGGGACCCA: the self-cleavage was 0.569. As to GGCCGGCAUGGUCCCAGCCUCCUCGCUGGCGCCGGCUGGGCAACAUUCCGAGGGGUCCGUCCCCUCGGUAAUGGCGAACGGGACCCA, the self-cleavage is 0.429. Take GGCCGGCAUGGUCCCAGCCUCCUCGCUGGCGCCGGCUGGGCAACAUUCCGAGGGGUCCGUCCCCUCGGUAAUGGCGAAGGGGACCCA: the self-cleavage amounted to 0.787. Consider GGCCGGCAUGGUCCCAGCCUCCUCGCUGGCGCCGGCUGGGCAACAUUCCGAGGGGAACGUCCCCUCGGUAAUGGCGGAUGGGACCCA, for which the self-cleavage came out at 1.17. With GGCCGGCAUGGUCCCAGCCUCCUCGCUGGCGCCGGCUGGGCAACAUUCCGAGGGGAACGUCCCAUCGGUAAUGGCGAAUGGGACCCA, the self-cleavage turned out to be 0.857. For the variant GGCCGGCAUGGUCCCAGCCUCCUCGCUGGCGCCGGCUGGGCAACAUUCCGAGGGGAACGUCCCGUCGGUAAUGGCGAAUGGGACCCA, the self-cleavage was 0.658.

In the case of GGCCGGCAUGGUCCCAGCCUCCUCGCUGGCGCCGGCUGGGCAACAUUCCGAGGGGAACGUCCCCUCGGUAAUGGCGAAUGGGACCCG, the self-cleavage was 1.07.

On to GGCCGGCAUGGUCCCAGCCUCCUCGCUGGCGCCGGCUGGGCAACAUUCCGAGGGGAACGUCCCCUAGGUAAUGGCGAAUGGGACCCA, for which the self-cleavage is 1.18. The value for GGCCGGCAUGGUCCCAGCCUCCUCGCUGGCGCCGGCUGGGCAACAUUCCGAGGGGAACGUCCCCUCGGUAAUGGCGACUGGGACCCA was 0.0437. With GGCCGGCAUGGUCCCAGCCUCCUCGCUGGCGCCGGCUGGGCAACAUUCCGAGGGGAACGUCCCCUCGGUAAUGGCGAUUGGGACCCA, the self-cleavage amounted to 0.108. Under GGCCGGCAUGGUCCCAGCCUCCUCGCUGGCGCCGGCUGGGCAACAUUCCGAGGGGAACGUCCCCUCGGUACUGGCGAAUGGGACCCA stands 0.866. For GGCCGGCAUGGUCCCAGCCUCCUCGCUGGCGCCGGCUGGGCAACAUUCCGAGGGGAACGUCCCCUCGGUAAUGGCGAAUGGGACCAA, the self-cleavage came to 0.986.

Take GGCCGGCAUGGUCCCAGCCUCCUCGCUGGCGCCGGCUGGGCAACAUUCCGAGGGGAACGUCCCCUCGGUAAUGGCGAAUGGGACCUA: the self-cleavage worked out at 1.06. Under GGCCGGCAUGGUCCCAGCCUCCUCGCUGGCGCCGGCUGGGCAACAUUCCGAGGGGAACGUCCCCUCGGUAAUGGAGAAUGGGACCCA stands 0.277; under GGCCGGCAUGGUCCCAGCCUCCUCGCUGGCGCCGGCUGGGCAACAUUCCGAGGGGAACGUCCCCUCGGUAAUGGUGAAUGGGACCCA, 0.0978; under GGCCGGCAUGGUCCCAGCCUCCUCGCUGGCGCCGGCUGGGCAACAUUCCGAGGGGAACGUCCCCUCGGUAAUGGCGAAUGGGAUCCA, 0.935. Under GGCCGGCAUGGUCCCAGCCUCCUCGCUGGCGCCGGCUGGGCAACAUUCCGAGGGGUCCGUCCCCACGGUAAUGGCGAAUGGGACCCA stands 1; under GGCCGGCAUGGUCCCAGCCUCCUCGCUGGCGCCGGCUGGGCAACAUUCCGAGGGGUCCGACCCCUCGGUAAUGGCGAAUGGGACCCA, 1.13; under GGCCGGCAUGGUCCCAGCCUCCUCGCUGGCGCCGGCUGGGCAACAUUCCGAGGGGUCCGGCCCCUCGGUAAUGGCGAAUGGGACCCA, 1.07.

Regarding GGCCGGCAUGGUCCCAGCCUCCUCGCUGGCGCCGGCUGGGCAACAUUCCGAGGGGAACGUCCGCUCGGUAAUGGCGAAUGGGACCCA, the self-cleavage worked out at 0.945. In the case of GGCCGGCAUGGUCCCAGCCUCCUCGCUGGCGCCGGCUGGGCAACAUUCCGAGGGGAACGUCCUCUCGGUAAUGGCGAAUGGGACCCA, the self-cleavage is 1.12. The value for GGCCGGCAUGGUCCCAGCCUCCUCGCUGGCGCCGGCUGGGCAACAUUCCGAGGGGAACGUCCACUCGGUAAUGGCGAAUGGGACCCA was 1.25; that for GGCCGGCAUGGUCCCAGCCUCCUCGCUGGCGCCGGCUGGGCAACAUUCCGAGGGGUCCGUCCCCUCGGUAAUGGCGAAUGGCACCCA was 0.172. For the variant GGCCGGCAUGGUCCCAGCCUCCUCGCUGGCGCCGGCUGGGCAACAUUCCGAGGGGUCCGUCCCCUCGGAAAUGGCGAAUGGGACCCA, the self-cleavage stood at 1.04.

Consider GGCCGGCAUGGUCCCAGCCUCCUCGCUGGCGCCGGCUGGGCAACAUUCCGAGGGGUCCGUCCCCUCGGUAACGGCGAAUGGGACCCA, for which the self-cleavage is 0.489. As for GGCCGGCAUGGUCCCAGCCUCCUCGCUGGCGCCGGCUGGGCAACAUUCCGAGGGGUCCGUCCCCUCGGUAAUGGCGAAUGAGACCCA, the self-cleavage was found to be 0.492. GGCCGGCAUGGUCCCAGCCUCCUCGCUGGCGCCGGCUGGGCAACAUUCCGAGGGGAACAUCCCCUCGGUAAUGGCGAAUGGGACCCA: the self-cleavage worked out at 1.04. Take GGCCGGCAUGGUCCCAGCCUCCUCGCUGGCGCCGGCUGGGCAACAUUCCGAGGGGAACGUUCCCUCGGUAAUGGCGAAUGGGACCCA: the self-cleavage came to 1.14.
